Assay results from the supplement of paper PMC5998384.

What was measured:
HeLa Kyoto [1] = assay: solubility change mitosis vs G1/S (difference of NP-40 vs SDS log2 ratios) (log2 ratio difference); higher = more soluble in mitosis
HeLa Kyoto [2] = assay: solubility in G1/S (NP-40 vs SDS abundance) (log2 ratio); higher = more soluble; conditions: cell cycle stage: G1/S
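Throughout, for solubility change mitosis vs G1/S (difference of NP-40 vs SDS log2 ratios): synchronized HeLa Kyoto cells (double thymidine block for G1/S, nocodazole release for mitosis), protein amounts in NP-40 versus SDS lysates quantified by mass spectrometry, three biological replicates.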
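Throughout, for solubility in G1/S (NP-40 vs SDS abundance): HeLa Kyoto cells arrested at G1/S by double thymidine block, proteins quantified by TMT10plex mass spectrometry in mild NP-40 versus SDS extracts, three biological replicates.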

Sequence	solubility change mitosis (log2) (HeLa Kyoto [1])	solubility in G1/S (log2) (HeLa Kyoto [2])
MNFTPTHTPVCRKRTVVSKRGVAVSGPTKRRGMADSLESTPLPSPEDRLAKLHPSKELLEYYQKKMAECEAENEDLLKKLELYKEACEGQHKLECDLQQREEEIAELQKALSDMQVCLFQEREHVLRLYSENDRLRIRELEDKKKIQNLLALVGTDAGEVTYFCKEPPHKVTILQKTIQAVGECEQSESSAFKADPKISKRRPSRERKESSEHYQRDIQTLILQVEALQAQLGEQTKLSREQIEGLIEDRRIHLEEIQVQHQRNQNKIKELTKNLHHTQELLYESTKDFLQLRSENQNKEKSWMLEKDNLMSKIKQYRVQCKKKEDKIGKVLPVMHESHHAQSEYIKSLKDKLVQEKKLSNMYQEQCISLEEELARIREEEGMRREIFKDRTNKMGKRLQIMTKRYEALERRRILEVEGFKTDIKVLRQKLKDLEQMLYKATVNARANQDLALLCEVRDSNRRAHKIQGELKNLKSKVFGLENELRLC [CCDC77]	0.373	-0.0939
MNGFTPDEMSRGGDAAAAVAAVVAAAAAAASAGNGTGAGTGAEVPGAGAVSAAGPPGAAGPGPGQLCCLREDGERCGRAAGNASFSKRIQKSISQKKVKIELDKSARHLYICDYHKNLIQSVRNRRKRKGSDDDGGDSPVQDIDTPEVDLYQLQVNTLRRYKRHFKLPTRPGLNKAQLVEIVGCHFRSIPVNEKDTLTYFIYSVKNDKNKSDLKVDSGVH [SAP30]	0.267	0.247
MNPQQQRMAAIGTDKELSDLLDFSAMFSPPVNSGKTRPTTLGSSQFSGSGIDERGGTTSWGTSGQPSPSYDSSRGFTDSPHYSDHLNDSRLGAHEGLSPTPFMNSNLMGKTSERGSFSLYSRDTGLPGCQSSLLRQDLGLGSPAQLSSSGKPGTAYYSFSATSSRRRPLHDSAALDPLQAKKVRKVPPGLPSSVYAPSPNSDDFNRESPSYPSPKPPTSMFASTFFMQDGTHNSSDLWSSSNGMSQPGFGGILGTSTSHMSQSSSYGNLHSHDRLSYPPHSVSPTDINTSLPPMSSFHRGSTSSSPYVAASHTPPINGSDSILGTRGNAAGSSQTGDALGKALASIYSPDHTSSSFPSNPSTPVGSPSPLTGTSQWPRPGGQAPSSPSYENSLHSLQSRMEDRLDRLDDAIHVLRNHAVGPSTSLPAGHSDIHSLLGPSHNAPIGSLNSNYGGSSLVASSRSASMVGTHREDSVSLNGNHSVLSSTVTTSSTDLNHKTQENYRGGLQSQSGTVVTTEIKTENKEKDENLHEPPSSDDMKSDDESSQKDIKVSSRGRTSSTNEDEDLNPEQKIEREKERRMANNARERLRVRDINEAFKELGRMCQLHLKSEKPQTKLLILHQAVAVILSLEQQVRERNLNPKAACLKRREEEKVSAVSAEPPTTLPGTHPGLSETTNPMGHM [TCF12]	-0.221	0.156
MNRSRAIVQRGRVLPPPAPLDTTNLAGRRTLQGRAKMASVPVYCLCRLPYDVTRFMIECDMCQDWFHGSCVGVEEEKAADIDLYHCPNCEVLHGPSIMKKRRGSSKGHDTHKGKPVKTGSPTFVRELRSRTFDSSDEVILKPTGNQLTVEFLEENSFSVPILVLKKDGLGMTLPSPSFTVRDVEHYVGSDKEIDVIDVTRQADCKMKLGDFVKYYYSGKREKVLNVISLEFSDTRLSNLVETPKIVRKLSWVENLWPEECVFERPNVQKYCLMSVRDSYTDFHIDFGGTSVWYHVLKGEKIFYLIRPTNANLTLFECWSSSSNQNEMFFGDQVDKCYKCSVKQGQTLFIPTGWIHAVLTPVDCLAFGGNFLHSLNIEMQLKAYEIEKRLSTADLFRFPNFETICWYVGKHILDIFRGLRENRRHPASYLVHGGKALNLAFRAWTRKEALPDHEDEIPETVRTVQLIKDLAREIRLVEDIFQQNVGKTSNIFGLQRIFPAGSIPLTRPAHSTSVSMSRLSLPSKNGSKKKGLKPKELFKKAERKGKESSALGPAGQLSYNLMDTYSHQALKTGSFQKAKFNITGACLNDSDDDSPDLDLDGNESPLALLMSNGSTKRVKSLSKSRRTKIAKKVDKARLMAEQVMEDEFDLDSDDELQIDERLGKEKATLIIRPKFPRKLPRAKPCSDPNRVREPGEVEFDIEEDYTTDEDMVEGVEGKLGNGSGAGGILDLLKASRQVGGPDYAALTEAPASPSTQEAIQGMLCMANLQSSSSSPATSSLQAWWTGGQDRSSGSSSSGLGTVSNSPASQRTPGKRPIKRPAYWRTESEEEEENASLDEQDSLGACFKDAEYIYPSLESDDDDPALKSRPKKKKNSDDAPWSPKARVTPTLPKQDRPVREGTRVASIETGLAAAAAKLAQQELQKAQKKKYIKKKPLLKEVEQPRPQDSNLSLTVPAPTVAATPQLVTSSSPLPPPEPKQEALSGSLADHEYTARPNAFGMAQANRSTTPMAPGVFLTQRRPSVGSQSNQAGQGKRPKKGLATAKQRLGRILKIHRNGKLLL [PHF8]	0.336	-0.765
MNSDQDVALKLAQERAEIVAKYDRGREGAEIEPWEDADYLVYKVTDRFGFLHEEELPDHNVAVERQKHLEIERTTKWLKMLKGWEKYKNTEKFHRRIYKGIPLQLRGEVWALLLEIPKMKEETRDLYSKLKHRARGCSPDIRQIDLDVNRTFRDHIMFRDRYGVKQQSLFHVLAAYSIYNTEVGYCQGMSQITALLLMYMNEEDAFWALVKLFSGPKHAMHGFFVQGFPKLLRFQEHHEKILNKFLSKLKQHLDSQEIYTSFYTMKWFFQCFLDRTPFTLNLRIWDIYIFEGERVLTAMSYTILKLHKKHLMKLSMEELVEFFQETLAKDFFFEDDFVIEQLQISMTELKRAKLDLPEPGKEDEYPKKPLGQLPPELQSWGVHHLSNGQRSVGRPSPLASGRRESGAPHRRHEHSPHPQSRTGTPERAQPPRRKSVEEESKKLKDEADFQRKLPSGPQDSSRQYNHAAANQNSNATSNIRKEFVPKWNKPSDVSATERTAKYTMEGKGRAAHPALAVTVPGPAEVRVSNVRPKMKALDAEDGKRGSTASQYDNVPGPELDSGASVEEALERAYSQSPRHALYPPSPRKHAEPSSSPSKVSNKFTFKVQPPSHARYPSQLDGEARGLAHPPSYSNPPVYHGNSPKHFPTANSSFASPQFSPGTQLNPSRRPHGSTLSVSASPEKSYSRPSPLVLPSSRIEVLPVDTGAGGYSGNSGSPKNGKLIIPPVDYLPDNRTWSEVSYTYRPETQGQSWTRDASRGNLPKYSAFQLAPFQDHGLPAVSVDSPVRYKASPAAEDASPSGYPYSGPPPPAYHYRNRDGLSIQESVLL [USP6NL]	-0.321	-0.388
MNSGRPETMENLPALYTIFQGEVAMVTDYGAFIKIPGCRKQGLVHRTHMSSCRVDKPSEIVDVGDKVWVKLIGREMKNDRIKVSLSMKVVNQGTGKDLDPNNVIIEQEERRRRSFQDYTGQKITLEAVLNTTCKKCGCKGHFAKDCFMQPGGTKYSLIPDEEEEKEEAKSAEFEKPDPTRNPSRKRKKEKKKKKHRDRKSSDSDSSDSESDTGKRARHTSKDSKAAKKKKKKKKHKKKHKE [ZCCHC17]	0.661	-1.32
MNYVGQLAGQVFVTVKELYKGLNPATLSGCIDIIVIRQPNGNLQCSPFHVRFGKMGVLRSREKVVDIEINGESVDLHMKLGDNGEAFFVQETDNDQEVIPMHLATSPILSEGASRMECQLKRGSVDRMRGLDPSTPAQVIAPSETPSSSSVVKKRRKRRRKSQLDSLKRDDNMNTSEDEDMFPIEMSSDEAMELLESSRTLPNDIPPFQDDIPEENLSLAVIYPQSASYPNSDREWSPTPSPSGSRPSTPKSDSELVSKSTERTGQKNPEMLWLWGELPQAAKSSSPHKMKESSPLSSRKICDKSHFQAIHSESSDTFSDQSPTLVGGALLDQNKPQTEMQFVNEEDLETLGAAAPLLPMIEELKPPSASVVQTANKTDSPSRKRDKRSRHLGADGVYLDDLTDMDPEVAALYFPKNGDPSGLAKHASDNGARSANQSPQSVGSSGVDSGVESTSDGLRDLPSIAISLCGGLSDHREITKDAFLEQAVSYQQFVDNPAIIDDPNLVVKIGSKYYNWTTAAPLLLAMQAFQKPLPKATVESIMRDKMPKKGGRWWFSWRGRNTTIKEESKPEQCLAGKAHSTGEQPPQLSLATRVKHESSSSDEERAAAKPSNAGHLPLLPNVSYKKTLRLTSEQLKSLKLKNGPNDVVFSVTTQYQGTCRCEGTIYLWNWDDKVIISDIDGTITRSDTLGHILPTLGKDWTHQGIAKLYHKVSQNGYKFLYCSARAIGMADMTRGYLHWVNERGTVLPQGPLLLSPSSLFSALHREVIEKKPEKFKVQCLTDIKNLFFPNTEPFYAAFGNRPADVYSYKQVGVSLNRIFTVNPKGELVQEHAKTNISSYVRLCEVVDHVFPLLKRSHSSDFPCSDTFSNFTFWREPLPPFENQDIHSASA [LPIN1]	-0.0904	0.0583
